Data as given in publication PMC4109916.

Key:
[1] = molecular target: Recombinant Protein A (SpA) (staphylococcal (species not stated)) (UniProt P38507); experiment: ELISA; competition: wells coated with mKate-IgGBP or SpA; 1:4000 dIgG-HRP co-incubated with increasing concentrations of unlabeled IgG, 1 hr at room temperature, 3% BSA in PBS-T; IC50 from a one-site LogIC50 fit
[2] = molecular target: Human IgG1 (Avastin, bevacizumab) (human); experiment: SPR; pH 7.4
[3] = molecular target: Human IgG1 (Avastin, bevacizumab) (human)
[4] = molecular target: Human IgG1 (Avastin, bevacizumab) (human); remark: listed apart in the source
[5] = molecular target: hIgG1-TAMRA (labeled human IgG1) (human); experiment: flow cytometry on cells; same competition experiment as a5 (1 µM hIgG1-TAMRA, MDCK hFcRn-EYFP/hβ2m cells, 1 hr at 37°C, pH 6); pair of the soluble competitor mKate-IgGBP with the labeled hIgG1 that it binds
[6] = molecular target: Human IgG1 (Avastin, bevacizumab) (human); experiment: SPR; pH 6
[7] = molecular target: mKate-IgGBP (monomeric Katushka modified at its C-terminus with the IgG-Fc binding peptide); experiment: ELISA; competition: wells coated with mKate-IgGBP or SpA; 1:4000 dIgG-HRP co-incubated with increasing concentrations of unlabeled IgG, 1 hr at room temperature, 3% BSA in PBS-T; IC50 from a one-site LogIC50 fit
[8] = molecular target: human neonatal Fc receptor hFcRn-EYFP/hβ2m on MDCK cells (human) (UniProt P55899); experiment: flow cytometry on cells; competition: MDCK hFcRn-EYFP/hβ2m cells with 1 µM hIgG1-TAMRA and increasing unlabeled competitor, 1 hr at 37°C, pH 6 (HBSS, 1% ovalbumin, 50 mM MES); read-out is % hIgG1 accumulation (binding and FcRn-dependent endocytosis); pairs with the receptor on cells
Sequence of UniProt P55899 (P55899 24-365, chain 1 of 2): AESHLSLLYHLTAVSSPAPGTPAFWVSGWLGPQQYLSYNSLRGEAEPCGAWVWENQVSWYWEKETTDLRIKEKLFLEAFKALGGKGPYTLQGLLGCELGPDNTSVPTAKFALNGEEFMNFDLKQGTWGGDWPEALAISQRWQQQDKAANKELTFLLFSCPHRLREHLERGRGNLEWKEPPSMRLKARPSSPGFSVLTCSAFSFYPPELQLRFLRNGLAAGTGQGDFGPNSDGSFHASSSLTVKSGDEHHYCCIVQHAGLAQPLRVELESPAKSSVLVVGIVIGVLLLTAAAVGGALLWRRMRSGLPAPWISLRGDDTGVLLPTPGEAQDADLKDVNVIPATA
Sequence of UniProt P55899 (P61769 21-119, chain 2 of 2, further chain): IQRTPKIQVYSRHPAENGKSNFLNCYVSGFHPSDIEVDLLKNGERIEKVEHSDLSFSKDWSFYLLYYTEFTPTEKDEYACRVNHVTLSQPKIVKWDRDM

Q: Which IC50 [1] does the source give for “Human IgG1 (Avastin, bevacizumab) (antibody)” here?
A: 22 nM

Q: How did the IC50 [1] turn out when “mouse IgG2a (CI.18 isotype control) (antibody)” was run?
A: 61 nM

Q: For “mKate-IgGBP (monomeric Katushka modified at its C-terminus with the IgG-Fc binding peptide) (designed binder)”, which Kd [2] is on record?
A: 40 nM

Q: What about the koff [2] of the same molecule?
A: 0.0042 s⁻¹

Q: And the kon [2]?
A: 110000 M⁻¹ s⁻¹

Q: And the plasma half-life of mKate-IgGBP (10 mg/kg i.v.) in hFcRn Tg mice pre-dosed with 500 mg/kg hIgG1 [3]?
A: 8 h

Q: And the fold extension of the plasma half-life of mKate-IgGBP co-dosed 1:1 mol with labeled hIgG1 in hFcRn Tg mice, against mKate-IgGBP dosed without hIgG1 [4]?
A: 16 fold

Q: And the IC50 [5]?
A: 700 nM

Q: And the Kd [6]?
A: 19 nM

Q: What about the koff [6] of the same molecule?
A: 0.0053 s⁻¹

Q: What about the kon [6] of the same molecule?
A: 270000 M⁻¹ s⁻¹

Q: For “mouse IgG2b (MPC-11 isotype control) (antibody)”, which IC50 [1] is on record?
A: 54 nM

B1: Human IgG1 (Avastin, bevacizumab) (antibody, V domains shown)
VH: EVQLVESGGGLVQPGGSLRLSCAASGYTFTNYGMNWVRQAPGKGLEWVGWINTYTGEPTYAADFKRRFTFSLDTSKSTAYLQMNSLRAEDTAVYYCAKYPHYYGSSHWYFDVWGQGTLVTVSS
VL: DIQMTQSPSSLSASVGDRVTITCSASQDISNYLNWYQQKPGKAPKVLIYFTSSLHSGVPSRFSGSGSGTDFTLTISSLQPEDFATYYCQQYSTVPWTFGQGTKVEIK
Q: B1 was tested. Which IC50 [7] did it give?
A: 2.4 nM

Q: And the IC50 [8]?
A: 2800 nM
